Data taken from patent publication US20240116985A1 (published 2024).
Starred links: 1 amine or outer side, 2 acyl side, 3 side chain; linkers in the order of their positions; H or OH if unused. Positions of bridges follow the written chain, without caps; N, C: chain ends. Non-standard residues stand in square brackets, D forms with d. Primed or numbered codes have the meaning given here. B5(4) = 2,2-bis(4-pentenyl)glycine = 2-amino-2-(pent-4-en-1-yl)hept-6-enoic acid (stitching residue), C=CCCCC(CCCC=C)(N[*:1])C(=O)[*:2]; PyrS2 = (S)-3-amino-1-((pent-4-en-1-yloxy)carbonyl)pyrrolidine-3-carboxylic acid, C=CCCCOC(=O)N1CC[C@@](N[*:1])(C(=O)[*:2])C1; B5(19) = 2-amino-2-(pent-4-en-1-yl)hept-6-enoic acid (bis(4-pentenyl)glycine), C=CCCCC(CCCC=C)(N[*:1])C(=O)[*:2]; Bta = N[C@@H](Cc1csc2ccccc12)C(=O)O; αAllylPro = C=CC[C@@]1(C(=O)O)CCCN1; S8 = C=CCCCCCC[C@](C)(N)C(=O)O

T1: B-cat-Halo (UniProt P35222 1-781, HaloTag NanoBRET 618 Ligand bound to the HaloTag in the assay)
T1 construct: Transfected into HEK293 cells for the NanoBRET assay; intracellular; also called beta-catenin HaloTag fusion; not shown: HaloTag
T1 sequence (looked up): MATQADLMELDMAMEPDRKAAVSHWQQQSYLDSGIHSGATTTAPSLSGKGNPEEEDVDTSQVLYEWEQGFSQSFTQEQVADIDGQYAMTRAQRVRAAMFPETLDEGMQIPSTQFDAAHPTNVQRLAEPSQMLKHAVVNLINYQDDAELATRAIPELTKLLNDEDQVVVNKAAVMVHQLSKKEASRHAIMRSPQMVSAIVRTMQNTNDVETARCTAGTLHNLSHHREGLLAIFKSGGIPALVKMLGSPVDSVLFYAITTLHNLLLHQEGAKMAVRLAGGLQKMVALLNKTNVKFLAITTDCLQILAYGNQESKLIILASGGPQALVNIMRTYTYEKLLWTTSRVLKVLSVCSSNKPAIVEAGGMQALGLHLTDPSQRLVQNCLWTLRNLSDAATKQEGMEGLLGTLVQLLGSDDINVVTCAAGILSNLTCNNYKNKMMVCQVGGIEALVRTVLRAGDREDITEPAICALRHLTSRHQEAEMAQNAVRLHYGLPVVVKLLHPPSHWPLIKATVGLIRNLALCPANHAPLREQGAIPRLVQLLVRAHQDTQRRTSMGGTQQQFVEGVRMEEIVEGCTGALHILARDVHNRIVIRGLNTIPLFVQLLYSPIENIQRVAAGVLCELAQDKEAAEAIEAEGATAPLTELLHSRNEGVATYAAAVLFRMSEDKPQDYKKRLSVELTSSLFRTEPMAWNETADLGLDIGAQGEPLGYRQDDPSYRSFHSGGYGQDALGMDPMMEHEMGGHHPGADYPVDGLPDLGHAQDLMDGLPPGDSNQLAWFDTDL

T2: full-length beta-Catenin (Uniprot ID P35222) (Homo sapiens (Human), UniProt P35222 1-781)
T2 construct: Tags of the recombinant protein are not described for the FP assay; also called bCat; B-Catenin
T2 sequence: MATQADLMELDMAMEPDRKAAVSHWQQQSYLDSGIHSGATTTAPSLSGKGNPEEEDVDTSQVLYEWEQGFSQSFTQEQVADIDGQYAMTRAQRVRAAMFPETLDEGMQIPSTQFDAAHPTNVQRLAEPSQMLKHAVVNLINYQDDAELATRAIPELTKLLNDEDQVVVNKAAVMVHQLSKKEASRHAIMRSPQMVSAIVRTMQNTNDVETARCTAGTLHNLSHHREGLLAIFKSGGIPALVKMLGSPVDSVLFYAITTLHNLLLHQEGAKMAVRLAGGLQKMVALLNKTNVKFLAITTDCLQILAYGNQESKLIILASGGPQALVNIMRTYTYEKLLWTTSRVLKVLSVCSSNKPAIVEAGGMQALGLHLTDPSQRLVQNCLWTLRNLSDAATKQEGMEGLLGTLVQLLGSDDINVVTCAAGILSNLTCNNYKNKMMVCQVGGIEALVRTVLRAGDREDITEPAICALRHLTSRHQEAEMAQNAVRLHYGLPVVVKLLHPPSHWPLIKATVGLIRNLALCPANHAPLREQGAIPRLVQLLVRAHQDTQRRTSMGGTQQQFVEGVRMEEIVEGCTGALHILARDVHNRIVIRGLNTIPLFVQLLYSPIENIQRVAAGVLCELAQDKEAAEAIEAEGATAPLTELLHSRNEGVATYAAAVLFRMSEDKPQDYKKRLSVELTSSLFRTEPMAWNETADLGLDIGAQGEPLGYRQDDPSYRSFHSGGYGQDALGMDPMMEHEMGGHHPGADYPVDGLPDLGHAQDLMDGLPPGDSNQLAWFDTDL

T3: B-cat-Halo (beta-catenin HaloTag NanoBRET construct expressed in HEK293 cells) (UniProt P35222 1-781, HaloTag NanoBRET 618 Ligand bound in the assay)
T3 sequence (looked up): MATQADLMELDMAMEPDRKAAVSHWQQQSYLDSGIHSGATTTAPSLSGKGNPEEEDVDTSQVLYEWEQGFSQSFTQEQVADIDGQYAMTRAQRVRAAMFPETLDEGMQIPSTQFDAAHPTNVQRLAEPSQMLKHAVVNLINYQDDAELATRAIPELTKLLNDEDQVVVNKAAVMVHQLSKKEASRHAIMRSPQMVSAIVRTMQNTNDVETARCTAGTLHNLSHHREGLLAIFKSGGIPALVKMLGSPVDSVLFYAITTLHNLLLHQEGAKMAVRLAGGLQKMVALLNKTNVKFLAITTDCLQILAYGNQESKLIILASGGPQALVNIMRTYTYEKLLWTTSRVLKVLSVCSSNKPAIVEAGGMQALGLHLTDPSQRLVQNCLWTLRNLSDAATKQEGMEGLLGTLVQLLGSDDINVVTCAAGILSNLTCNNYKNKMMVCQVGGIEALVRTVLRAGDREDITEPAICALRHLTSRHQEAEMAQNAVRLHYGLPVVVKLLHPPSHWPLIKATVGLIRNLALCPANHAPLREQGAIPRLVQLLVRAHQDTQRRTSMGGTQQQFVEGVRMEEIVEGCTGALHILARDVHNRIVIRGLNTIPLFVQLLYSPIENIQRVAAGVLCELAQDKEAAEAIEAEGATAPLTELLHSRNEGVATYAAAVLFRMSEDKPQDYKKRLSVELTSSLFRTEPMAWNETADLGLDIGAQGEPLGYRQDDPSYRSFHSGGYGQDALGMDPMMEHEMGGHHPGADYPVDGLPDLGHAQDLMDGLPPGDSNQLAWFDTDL

T4: full-length beta-Catenin (Uniprot ID P35222) (Homo sapiens (Human), UniProt P35222 2-781)
T4 construct: The FP protocol names full-length beta-Catenin (Uniprot ID P35222); also called bCat; B-Catenin
T4 sequence: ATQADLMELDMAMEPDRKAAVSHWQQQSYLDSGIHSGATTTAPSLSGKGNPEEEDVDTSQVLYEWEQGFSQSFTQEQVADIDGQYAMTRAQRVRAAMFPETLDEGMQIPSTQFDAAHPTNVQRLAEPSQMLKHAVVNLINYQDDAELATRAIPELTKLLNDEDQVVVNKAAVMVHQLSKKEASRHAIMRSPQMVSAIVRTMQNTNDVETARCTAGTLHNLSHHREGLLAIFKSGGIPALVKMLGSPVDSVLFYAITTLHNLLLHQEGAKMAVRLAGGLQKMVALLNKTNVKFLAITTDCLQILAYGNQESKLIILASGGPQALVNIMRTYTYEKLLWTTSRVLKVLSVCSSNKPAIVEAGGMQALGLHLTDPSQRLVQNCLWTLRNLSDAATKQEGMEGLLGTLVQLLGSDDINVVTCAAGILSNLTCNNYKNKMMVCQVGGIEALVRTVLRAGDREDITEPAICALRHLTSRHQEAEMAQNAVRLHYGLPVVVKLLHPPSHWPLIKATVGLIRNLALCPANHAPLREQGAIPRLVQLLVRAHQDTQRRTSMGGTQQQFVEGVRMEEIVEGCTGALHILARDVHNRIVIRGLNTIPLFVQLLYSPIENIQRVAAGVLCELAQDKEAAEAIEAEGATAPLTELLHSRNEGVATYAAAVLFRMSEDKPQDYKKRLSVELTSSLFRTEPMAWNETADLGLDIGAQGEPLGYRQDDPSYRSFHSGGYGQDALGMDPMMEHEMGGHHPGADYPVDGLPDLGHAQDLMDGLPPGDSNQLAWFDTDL


Columns and labels:
[1] = molecular target: T1, B-cat-Halo; assay: NanoBRET absolute IC50 in HEK293 cells; Bcat-Halo, competitor TCF4-Luc
[2] = molecular target: T2, full-length beta-Catenin (Uniprot ID …); assay: fluorescence polarization competition; full-length beta-catenin, competitor 5FAM-TCF4(10-53) probe
How it was run: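 Data fitted to 1:1 binding model with hill slope from duplicate reads taken after 60 minutes at 20° C. in the dark.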

[3] = molecular target: T3, B-cat-Halo (beta-catenin HaloTag …); assay: cell-based or functional assay
[4] = molecular target: T4, full-length beta-Catenin (Uniprot ID …); assay: fluorescence polarization competition; full-length beta-catenin, 5FAM-TCF4(10-53) probe as competitor
Protocol: The plate was incubated protected from light for 60 minutes at 20° C. prior to read. Reads were performed on a CLARIOstar plate reader (BMG Labtech) in duplicate, and data were fitted to a 1:1 binding model with hill slope using an in-house script. All provided concentrations are final concentrations.

Row | IC50 [1] | IC50 [2] | NanoBRET Abs IC50 [3] | IC50 [4] | Binder
1 | 18.1 µM | 26 nM |  |  | Ac-[αAllylPro]DL[B5(4)]DEAAFQ[S8]F[Bta]Q-NH2 (staple 1-4, 4-11) [I-1458]
2 |  |  | 32.3 µM | 156 nM | Ac-[αAllylPro]DL[B5(19)]DDAAFL[PyrS2]FWQ-NH2 (staple 1-4, 4-11, Stapled peptide; also called Ac-PL3-Asp-Leu-B5-Asp-Asp-Ala-Ala-Phe-Leu-PyrS2-Phe-Trp-Gln-NH2) [I-1811]
